Data published in patent publication US20140142160.

Tested on: Ezh2 (native PRC2) (Mus musculus)
Test: pulldown
Conditions: RIP-seq WT RPKM

Substance	binding signal (Ezh2-/- RPKM 3.27) [RPKM]	binding signal (Ezh2-/- RPKM 0) [RPKM]
Tsix RNA	10.3	–
Xist/RepA endogenous RNA	–	4.18
